Target: fibronectin (UniProt P02751)
Chain of UniProt P02751 (P02751 32-2477): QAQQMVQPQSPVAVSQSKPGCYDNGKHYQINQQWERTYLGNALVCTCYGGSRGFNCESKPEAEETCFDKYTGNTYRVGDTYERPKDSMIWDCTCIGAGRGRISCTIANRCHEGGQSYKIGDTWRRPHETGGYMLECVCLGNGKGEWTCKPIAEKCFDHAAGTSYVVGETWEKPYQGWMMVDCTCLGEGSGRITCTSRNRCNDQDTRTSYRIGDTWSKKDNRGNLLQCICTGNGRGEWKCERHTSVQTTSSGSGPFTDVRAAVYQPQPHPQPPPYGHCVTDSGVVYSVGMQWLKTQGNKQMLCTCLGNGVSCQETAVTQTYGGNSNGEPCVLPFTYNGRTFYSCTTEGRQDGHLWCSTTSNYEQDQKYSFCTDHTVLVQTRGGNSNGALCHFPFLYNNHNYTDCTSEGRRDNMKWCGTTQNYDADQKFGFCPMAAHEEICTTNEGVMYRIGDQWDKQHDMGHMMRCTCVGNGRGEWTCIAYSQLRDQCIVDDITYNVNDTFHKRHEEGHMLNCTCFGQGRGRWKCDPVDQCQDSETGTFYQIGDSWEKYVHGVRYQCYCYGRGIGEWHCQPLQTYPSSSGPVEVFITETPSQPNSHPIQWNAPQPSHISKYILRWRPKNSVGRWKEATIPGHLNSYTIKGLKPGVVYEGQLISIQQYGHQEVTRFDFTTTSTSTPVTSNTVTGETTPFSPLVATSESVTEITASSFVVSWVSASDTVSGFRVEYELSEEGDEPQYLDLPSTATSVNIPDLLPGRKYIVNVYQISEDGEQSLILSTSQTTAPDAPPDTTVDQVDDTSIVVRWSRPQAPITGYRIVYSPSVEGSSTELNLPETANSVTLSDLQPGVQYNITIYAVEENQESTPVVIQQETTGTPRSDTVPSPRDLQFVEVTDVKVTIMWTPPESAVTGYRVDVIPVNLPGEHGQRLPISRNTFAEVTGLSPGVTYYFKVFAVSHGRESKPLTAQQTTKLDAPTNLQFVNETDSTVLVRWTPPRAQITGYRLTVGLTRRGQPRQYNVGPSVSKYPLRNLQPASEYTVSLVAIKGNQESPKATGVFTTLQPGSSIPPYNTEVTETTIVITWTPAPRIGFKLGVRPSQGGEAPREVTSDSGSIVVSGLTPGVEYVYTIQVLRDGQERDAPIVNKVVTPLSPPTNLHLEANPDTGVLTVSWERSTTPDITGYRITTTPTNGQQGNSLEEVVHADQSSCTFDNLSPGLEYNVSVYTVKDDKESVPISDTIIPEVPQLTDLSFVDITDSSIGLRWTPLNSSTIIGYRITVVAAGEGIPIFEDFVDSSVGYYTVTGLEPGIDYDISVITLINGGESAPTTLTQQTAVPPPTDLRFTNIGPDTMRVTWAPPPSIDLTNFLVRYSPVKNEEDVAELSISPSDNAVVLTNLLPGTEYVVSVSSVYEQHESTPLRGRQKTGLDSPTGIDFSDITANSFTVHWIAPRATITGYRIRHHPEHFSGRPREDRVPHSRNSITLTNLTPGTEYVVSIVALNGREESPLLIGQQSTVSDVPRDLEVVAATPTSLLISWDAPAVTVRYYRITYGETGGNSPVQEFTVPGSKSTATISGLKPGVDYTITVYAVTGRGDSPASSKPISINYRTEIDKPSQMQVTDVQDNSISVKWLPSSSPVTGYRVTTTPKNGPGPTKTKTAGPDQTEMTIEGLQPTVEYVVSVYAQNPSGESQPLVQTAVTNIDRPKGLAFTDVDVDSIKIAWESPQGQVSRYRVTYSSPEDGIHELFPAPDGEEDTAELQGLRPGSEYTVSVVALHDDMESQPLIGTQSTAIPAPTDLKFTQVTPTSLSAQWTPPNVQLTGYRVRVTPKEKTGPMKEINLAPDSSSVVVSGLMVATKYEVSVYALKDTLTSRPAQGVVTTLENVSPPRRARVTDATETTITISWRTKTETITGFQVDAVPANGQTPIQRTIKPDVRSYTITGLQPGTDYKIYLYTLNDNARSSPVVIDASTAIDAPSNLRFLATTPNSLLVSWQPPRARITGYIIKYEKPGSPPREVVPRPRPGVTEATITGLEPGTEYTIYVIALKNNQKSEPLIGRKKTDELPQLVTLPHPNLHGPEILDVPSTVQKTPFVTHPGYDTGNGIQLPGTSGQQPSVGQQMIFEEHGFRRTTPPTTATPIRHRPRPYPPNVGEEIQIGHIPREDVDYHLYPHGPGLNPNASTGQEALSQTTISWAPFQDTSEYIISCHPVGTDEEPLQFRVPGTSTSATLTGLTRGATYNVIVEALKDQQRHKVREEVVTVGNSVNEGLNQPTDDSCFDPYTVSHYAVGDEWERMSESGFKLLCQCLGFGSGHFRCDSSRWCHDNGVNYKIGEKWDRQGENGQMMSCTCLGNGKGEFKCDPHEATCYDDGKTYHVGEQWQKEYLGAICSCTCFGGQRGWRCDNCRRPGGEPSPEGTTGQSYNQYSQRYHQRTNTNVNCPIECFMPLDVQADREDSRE

Chain of β1-integrin (P49134 21-799): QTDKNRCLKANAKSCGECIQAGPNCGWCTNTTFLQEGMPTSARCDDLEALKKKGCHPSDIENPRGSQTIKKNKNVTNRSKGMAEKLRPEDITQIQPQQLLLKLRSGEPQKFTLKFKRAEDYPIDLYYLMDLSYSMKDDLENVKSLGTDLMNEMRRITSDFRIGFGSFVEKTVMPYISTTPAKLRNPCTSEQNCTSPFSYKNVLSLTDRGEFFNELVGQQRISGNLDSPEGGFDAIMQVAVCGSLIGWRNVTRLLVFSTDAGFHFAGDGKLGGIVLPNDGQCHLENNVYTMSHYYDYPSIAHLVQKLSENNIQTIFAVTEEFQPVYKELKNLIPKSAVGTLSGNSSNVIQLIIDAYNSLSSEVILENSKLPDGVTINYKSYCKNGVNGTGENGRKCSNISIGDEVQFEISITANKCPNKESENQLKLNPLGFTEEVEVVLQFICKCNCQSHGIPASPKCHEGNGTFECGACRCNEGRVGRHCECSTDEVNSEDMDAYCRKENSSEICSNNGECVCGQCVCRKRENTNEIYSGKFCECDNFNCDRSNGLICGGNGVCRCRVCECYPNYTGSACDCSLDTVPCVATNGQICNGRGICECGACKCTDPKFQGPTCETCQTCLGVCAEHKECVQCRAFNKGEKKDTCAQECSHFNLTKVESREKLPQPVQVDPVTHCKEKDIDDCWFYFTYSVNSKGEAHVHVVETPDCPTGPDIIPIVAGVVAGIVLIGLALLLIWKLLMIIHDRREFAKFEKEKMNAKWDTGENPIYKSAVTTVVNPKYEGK

- inhibition of adhesion of 3Y1 cells to fibronectin-coated plates (60 min, 37°C) by β1-integrin blocking antibody (hamster anti-rat CD29, 50 µg/mL): 51%
- inhibition of adhesion of HR-3Y1-2 cells to fibronectin-coated plates (60 min, 37°C) by β1-integrin blocking antibody (hamster anti-rat CD29, 50 µg/mL): 57%
Substance: β1-integrin (from UniProt P49134 21-799) (receptor)

Reference: publication PMC3334378
